In assay [1] the target is T1, CD40 expressed on cells (UniProt P25942 21-277).
T1 construct: whole, on cells; also called B16-CD40; CD40 expressing B16 cells
In words: flow cytometry on B16 cells expressing CD40, anti-human IgG Fcg-PE; B16wt cells as control. Background: A flow cytometer gives signals particle by particle.
Description: (§1) Binding to respective targets expressed on cells were evaluated using flow cytometry. I brief, CHO cells modified to express 5T4, B16 cells modified to express CD40 as well as the wildtype CHO and B16 cell lines were incubated with titrated concentrations of RUBY™ bsAbs. Binding of the antibodies was detected using fluorochrome-conjugated anti-human IgG and analyzed using flow cytometry.

Assay [2] has as its target T2, CD40 (UniProt P25942 21-193).
T2 construct: also called biotinylated CD40; CD40 antigen
In words: dual target ELISA with 5T4 and CD40 (one coated, the other biotinylated; which is not stated), streptavidin-HRP; signal needs both targets. Background: In an ELISA, binding on a coated surface is turned into a signal by an enzyme label.

Assay [3] deals with T3, 5T4 (UniProt Q13641 32-355).
T3 construct: also called 5T4 antigen (dual target ELISA)
T3 sequence (looked up): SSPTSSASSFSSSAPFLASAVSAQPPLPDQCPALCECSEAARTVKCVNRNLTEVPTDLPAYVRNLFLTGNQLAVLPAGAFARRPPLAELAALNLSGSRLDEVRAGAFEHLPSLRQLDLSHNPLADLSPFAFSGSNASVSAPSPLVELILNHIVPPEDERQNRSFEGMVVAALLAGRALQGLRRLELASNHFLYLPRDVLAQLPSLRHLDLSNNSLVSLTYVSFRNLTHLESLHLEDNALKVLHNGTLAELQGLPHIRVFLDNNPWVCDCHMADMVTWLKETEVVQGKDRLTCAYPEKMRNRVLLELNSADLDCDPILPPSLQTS
Described as above.

The target in assay [4] is T4, 5T4 expressed on CHO cells (UniProt Q13641 32-420, limits assumed).
T4 construct: whole, on cells; also called CHO-5T4; 5T4 expressing CHO cells
T4 sequence (looked up): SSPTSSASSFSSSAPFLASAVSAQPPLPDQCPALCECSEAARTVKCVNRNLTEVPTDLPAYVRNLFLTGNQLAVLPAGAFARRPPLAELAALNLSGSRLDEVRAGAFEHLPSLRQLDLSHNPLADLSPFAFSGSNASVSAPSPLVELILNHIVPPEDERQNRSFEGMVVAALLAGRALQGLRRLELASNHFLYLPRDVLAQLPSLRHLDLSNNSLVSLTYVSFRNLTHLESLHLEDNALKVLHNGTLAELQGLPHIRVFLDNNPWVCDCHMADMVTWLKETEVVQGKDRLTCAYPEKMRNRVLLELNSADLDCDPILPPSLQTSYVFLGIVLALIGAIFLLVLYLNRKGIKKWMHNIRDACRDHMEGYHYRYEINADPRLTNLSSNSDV
Description: flow cytometry on CHO cells expressing 5T4, anti-human IgG Fcg-PE; CHOwt cells as control.
Description: as §1

Assay [5] addresses T3, 5T4. Description: dual target ELISA (simultaneous 5T4 and CD40).
Description: Antigen binding was evaluated by dual target ELISA. In brief, relevant antigens were coated at 0.5 μg/ml in PBS in ELISA plates over night at 4° C. After washing in PBS/0.05% Tween 20 (PBST), the plates were blocked with PBST/2% BSA for at least 30 minutes at room temperature before being washed again. Samples serially diluted in PBST/0.5% BSA were then added and allowed to bind for at least 1 hour at room temperature. […] Dual complexed bsAb were detected with HRP-labelled streptavidin. SuperSignal Pico Luminescent was used as substrate and luminescence signals were measured using Fluostar Optima. Binding was compared between parental and mutated RUBY pairs.
For another assay, the target named is T5, EpCAM (UniProt P16422 24-265).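 Note: octet RED96 kinetics: 300 s association, then 300 s dissociation in 1x Kinetic buffer, buffer-blank referenced, Savitzky-Golay smoothed, fitted to a 1:1 Langmuir binding model.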
T5 construct: also called biotinylated EpCAM
T5 sequence (looked up): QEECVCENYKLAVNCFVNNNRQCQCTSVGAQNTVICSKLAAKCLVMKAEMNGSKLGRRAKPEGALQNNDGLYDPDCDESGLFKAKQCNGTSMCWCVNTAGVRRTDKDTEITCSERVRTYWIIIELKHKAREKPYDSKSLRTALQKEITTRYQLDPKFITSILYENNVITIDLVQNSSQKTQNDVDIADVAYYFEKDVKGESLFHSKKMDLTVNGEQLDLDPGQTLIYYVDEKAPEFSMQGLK
In words: Octet BLI; biotinylated EpCAM on streptavidin sensor. (In general: BLI is a label-free optical method that tracks binding on a fibre tip over time.)

Assay [6] deals with T2, CD40. In words: Octet BLI; biotinylated CD40 on streptavidin sensor.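 Note: octet RED96 biolayer interferometry, 300 s association then 300 s dissociation in kinetic buffer, buffer-blank referenced, fitted with a 1:1 Langmuir binding model.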
Description: Kinetic measurements were performed using the Octet RED96 platform (ForteBIo). […] Association was followed for 300 seconds followed by dissociation in 1x Kinetic buffer for 300 seconds. Sensor tips were regenerated using 10 mM glycine, pH 1.7. Data generated were referenced by subtracting a parallel buffer blank, the baseline was aligned with the γ-axis, inter-step correlation by alignment against dissociation was performed and the data were smoothed by a Savitzky-Golay filter in the data analysis software (v.9.0.0.14). The processed data were fitted using a 1:1 Langmuir binding model with X2 as a measurement of fitting accuracy.
Binding affinities of all the variants were determined using Octet (Pall ForteBio).
Assay [7] concerns the target T2, CD40. Description: dual ELISA: CD40 coated, bsAb titrated, biotinylated EpCAM + streptavidin-HRP; signal needs both targets.
Description: (§2) Dual ELISA Plates were coated with 0.5 μg/mL CD40 in PBS over night at 4° C. After washing in PBS/0.05% Tween 20 (PBST), the plates were blocked with PBS/2% BSA for at least 30 minutes at room temperature before being washed again. Samples serially diluted in PBS/0.5% BSA were then added and allowed to bind for at least 1 hour at room temperature. […] Dual complexed bsAb with CD40 and EpCAM were detected with HRP-labelled streptavidin. SuperSignal Pico Luminescent was used as substrate and luminescence signals were measured using Fluostar Optima.
For assay [8], the target named is T2, CD40. The assay is described as above. The source holds these as a separate data set.
Description: as §2
Assay [9] concerns the target T1, CD40 expressed on cells. In words: flow cytometry on B16 cells expressing CD40, anti-human IgG Fcg-PE; B16wt cells as control. The source holds these as a separate data set.
Description: as §1
In assay [10] the target is T2, CD40. Description: dual ELISA: CD40 coated, bsAb titrated, biotinylated EpCAM + streptavidin-HRP; signal needs both targets. The source holds these as a separate data set.
Description: as §2
The target of assay [11] is T4, 5T4 expressed on CHO cells. In words: flow cytometry on CHO cells expressing 5T4, anti-human IgG Fcg-PE; CHOwt cells as control. The source holds these as a separate data set.
Description: as §1
Assay [12] addresses T2, CD40. Description: dual ELISA: CD40 coated, bsAb titrated, biotinylated EpCAM + streptavidin-HRP; signal needs both targets. The source holds these as a separate data set.
Description: as §2

Substitutions are numbered along the chain they refer to. Names may count otherwise. Read-outs that look alike come from different tables or passages of the source.

T1 sequence (P25942 21-277 limits assumed): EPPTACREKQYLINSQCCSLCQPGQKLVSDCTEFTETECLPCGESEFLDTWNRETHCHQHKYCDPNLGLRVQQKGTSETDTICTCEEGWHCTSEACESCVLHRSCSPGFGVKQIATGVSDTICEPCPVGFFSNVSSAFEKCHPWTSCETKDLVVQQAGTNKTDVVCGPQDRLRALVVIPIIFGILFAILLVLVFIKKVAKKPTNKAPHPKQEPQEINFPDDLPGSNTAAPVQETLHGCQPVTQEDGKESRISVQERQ
T2 sequence (P25942 21-193 limits assumed): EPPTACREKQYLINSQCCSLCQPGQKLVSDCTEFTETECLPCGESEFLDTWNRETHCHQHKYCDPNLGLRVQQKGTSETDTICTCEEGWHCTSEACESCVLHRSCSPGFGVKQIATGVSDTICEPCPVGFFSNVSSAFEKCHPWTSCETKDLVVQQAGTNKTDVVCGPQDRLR

B1: AC_05330 (bispecific antibody, human IgG1, lambda, L234A L235A)
heavy: not shown
light: not shown
chain: EVQLLESGGGLVQPGGSLRLSCAASGFTFSSYAMSWVREAPGKGLEWVSAISGSGGSTYYADSVKGRFTISRDNSKNTLYLQMNSLRAEDTAVYYCARYYGGYYSAWMDYWGQGTLVTVSSASTKGPSVFPLAPSSKSTSGGTAALGCLVKDYFPEPVTVSWNSGALTSGVHTFPAVLQSSGLYSLSSVVEVPSSSLGTQTYICNVNHKPSNTKVDKKVEPKSC
notes: RUBY format; H1 (role heavy) = IgG heavy chain-linker-Fab light chain, L1 (role light) = IgG light chain, H2 (role chain) = Fab heavy chain; also called parental bsAb AC_05330; CD40x5T4
Broadly, the EC50 (read off the curve) is the concentration needed to bring the measured effect to its halfway point. B1: the “EC50 (read off the curve)” value was approximately 0.8 nM in the assay with CD40 expressed on cells [1], approximately 0.8 nM with CD40 [2], approximately 0.8 nM in the assay with 5T4 [3] and approximately 30 nM in assay [4].

B2: AC_05375 (bispecific antibody, human IgG1, lambda, L234A L235A)
heavy 1: not shown
light: not shown
heavy 2: B1 chain with T58I
notes: AC_05330 with the mutation in the VH of chain H2; also called T65I mutant of AC_05330; copies: 2 + 2 + 2
Consider B2, for which the binding result in the assay with 5T4 [5] is “no binding”; in [4], “no binding (tested: about 700 nM)”. In the assay with CD40 expressed on cells [1], the concentration giving a half-maximal response (EC50 (read off the curve)) is approximately 0.4 nM.

B3: AC_05373 (bispecific antibody, human IgG1, lambda, L234A L235A)
heavy 1: not shown
light: not shown
heavy 2: B1 chain with T58E
notes: AC_05330 with the mutation in the VH of chain H2; also called T65E mutant of AC_05330; copies: 2 + 2 + 2
B3: the “EC50 (read off the curve)” value is approximately 0.6 nM with CD40 expressed on cells [1], approximately 0.7 nM with CD40 [2], approximately 0.7 nM with 5T4 [3] and approximately 30 nM in assay [4].

B4: AC_05374 (bispecific antibody, human IgG1, lambda, L234A L235A)
heavy 1: not shown
light: not shown
heavy 2: B1 chain with T58A
notes: AC_05330 with the mutation in the VH of chain H2; also called T65A mutant of AC_05330; copies: 2 + 2 + 2
As for B4, the binding result in the assay with 5T4 [5] is on record as “no binding”; in [4] it was “no binding (tested: about 700 nM)”. For the same molecule, the “EC50 (read off the curve)” value in the assay with CD40 expressed on cells [1] is approximately 0.5 nM.

B5: AM_4115-4131 (bispecific antibody)
heavy 1: not shown
light: DIQMTQSPSSLSASVGDRVTITCRASQSISSYLNWYQEKPGKAPKLLIYAASSLQSGVPSRFSGSGSGTDFTLTISSLQPEDFATYYCQQYGRNPPTFGQGTKLEIKRTVAAPSVFIFPPSDEQLKSGTASVVCYLNNFYPREAKVQWKVDNALQSGNSQESVTEQDSKDSTYSLWSTLTLSKADYEKHKVYACEVTHQGLSSPVTKSFNRGEC
heavy 2: EVQLLEQSGAELVRPGTSVKISCKASGYAFTNYWLGWVKERPGHGLEWIGDIFPGSGNIHYNEKFKGKATLTADKSSSTAYMQLSSLTFEDSAVYFCARLRNWDEPMDYWGQGTTVTVSSASTKGPSVFPLAPSSKSTSGGTAALGCLVKDYFPEPVTVSWNSGALTSGVHTFPAVLQSSGLWSLSSVVEVPSSSLGTQTYICNVNHKPSNTKVDKKVEPKSC
notes: AC_05293 backbone; also called double mutant I126S + Y180W; copies: 2 + 2 + 2
One may read the Kd as a measure of binding affinity in units of concentration. Low values mean a tighter complex, high ones a looser complex. As usually defined, the koff is the rate constant with which the complex falls apart. A lower koff goes with a long-lived complex. What is called kon is the rate constant with which the complex forms. Read a low kon as slower complex formation. Consider B5, for which, in the assay with EpCAM, the equilibrium dissociation constant (Kd) was found to be 7.2 nM, the koff was 0.0013 s⁻¹ and the kon was determined as 180000 M⁻¹ s⁻¹. In the assay with CD40 [6], this molecule gave a Kd of 0.97 nM, a koff of 0.00089 s⁻¹ and a kon of 920000 M⁻¹ s⁻¹. Further, the “EC50 (read off the curve)” value with CD40 [7] is approximately 0.6 nM.

B6: 4115 (bispecific antibody)
heavy 1: not shown
heavy 2: B5 heavy 2 with W183Y
light: B5 light
notes: also called single mutant I126S of AC_05293; copies: 2 + 2 + 2
Consider B6, for which the “EC50 (read off the curve)” value with CD40 [8] is approximately 0.2 µg/mL.

B7: AC_05377 (bispecific antibody)
heavy 1: not shown
light: B5 light
heavy 2: B1 chain with T58A
notes: AC_05302 with the mutation in the VH of chain H2; also called T65A mutant of AC_05302; copies: 2 + 2 + 2
With B7, the “EC50 (read off the curve)” value in the assay with CD40 expressed on cells [9] is approximately 1 nM.

B8: 4114 (bispecific antibody)
heavy 1: not shown
heavy 2: B5 heavy 2 with W183Y
light: B5 light
notes: also called single mutant I126Q of AC_05293; copies: 2 + 2 + 2
On to B8, for which the “EC50 (read off the curve)” value with CD40 [10] is approximately 0.1 µg/mL.

B9: AC_05370 (bispecific antibody, human IgG1, kappa, L234A L235A)
heavy 1: not shown
light: B5 light with Y91T, G92Y, R93G, N94Y, P95L, P96H
heavy 2: EVQLLESGGGLVQPGGSLRLSCAASGFTFSSYAMSWVREAPGKGLEWVSGIGSYGGGEYYADSVKGRFTISRDNSKNTLYLQMNSLRAEDTAVYYCARYVNFGMDYWGQGTLVTVSSASTKGPSVFPLAPSSKSTSGGTAALGCLVKDYFPEPVTVSWNSGALTSGVHTFPAVLQSSGLYSLSSVVEVPSSSLGTQTYICNVNHKPSNTKVDKKVEPKSC
notes: AC_05332 with the mutation in the VH of chain H2; also called T65E mutant of AC_05332; copies: 2 + 2 + 2
For the molecule B9, the “EC50 (read off the curve)” value in assay [11] is approximately 9 nM.

B10: AC_05378 (bispecific antibody)
heavy 1: not shown
light: B5 light
heavy 2: B1 chain with T58I
notes: AC_05302 with the mutation in the VH of chain H2; also called T65I mutant of AC_05302; copies: 2 + 2 + 2
Consider B10, for which the “EC50 (read off the curve)” value with CD40 expressed on cells [9] was approximately 1 nM.

B11: 4112 (bispecific antibody)
heavy 1: not shown
heavy 2: B5 heavy 2 with W183Y
light: B5 light
notes: also called single mutant I126N of AC_05293; copies: 2 + 2 + 2
For B11, the “EC50 (read off the curve)” value in the assay with CD40 [10] is approximately 0.1 µg/mL.

B12: AM_4120 (bispecific antibody)
heavy 1: not shown
heavy 2: B5 heavy 2 with W183Y
light: B5 light
notes: also called single mutant A111V of AC_05293; copies: 2 + 2 + 2
As for B12, in the assay with CD40 [12], the “EC50 (read off the curve)” value was approximately 0.1 µg/mL.

B13: AM_4119 (bispecific antibody)
heavy 1: not shown
heavy 2: B5 heavy 2 with W183Y
light: B5 light
notes: also called single mutant A111T of AC_05293; copies: 2 + 2 + 2
Take B13: the “EC50 (read off the curve)” value with CD40 [12] is approximately 0.1 µg/mL.

B14: AM_4115-4126 (bispecific antibody)
heavy 1: not shown
heavy 2: B5 heavy 2 with W183I
light: B5 light
notes: AC_05293 backbone; also called double mutant I126S + Y180I; copies: 2 + 2 + 2
For the molecule B14, in the assay with EpCAM, binding was characterised by a dissociation constant (Kd) of 6.9 nM, the koff was 0.0011 s⁻¹ and the association rate constant (kon) was 170000 M⁻¹ s⁻¹. In the assay with CD40 [6], this molecule came in with a Kd of 1.1 nM, a koff of 0.00085 s⁻¹ and a kon of 740000 M⁻¹ s⁻¹. In addition, in the assay with CD40 [7], the “EC50 (read off the curve)” value is approximately 0.5 nM.

B15: AM_4121 (bispecific antibody)
heavy 1: not shown
heavy 2: B5 heavy 2 with W183Y
light: B5 light
notes: also called single mutant A111W of AC_05293; copies: 2 + 2 + 2
B15: in the assay with CD40 [12], the “EC50 (read off the curve)” value is approximately 0.1 µg/mL.

B16: 4116 (bispecific antibody)
heavy 1: not shown
heavy 2: B5 heavy 2 with W183Y
light: B5 light
notes: also called single mutant I126T of AC_05293; copies: 2 + 2 + 2
Take B16: the “EC50 (read off the curve)” value with CD40 [8] is approximately 0.1 µg/mL.

The record behind these values is US20260001961A1 (ALLIGATOR BIOSCIENCE, published 2026).
